Source: US20210087286A1 (Amgen, published 2021)

T1: huGIPR ECD (human, UniProt P48546 21-129, limits assumed)
T1 construct: Soluble analyte of the Biacore assay; also called human GIPR extracellular domain
T1 sequence: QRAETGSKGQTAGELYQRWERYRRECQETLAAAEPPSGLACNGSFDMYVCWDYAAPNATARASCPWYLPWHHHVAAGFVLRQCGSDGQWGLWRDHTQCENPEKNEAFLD

T2: human GIPR (human, UniProt P48546 22-466)
T2 sequence: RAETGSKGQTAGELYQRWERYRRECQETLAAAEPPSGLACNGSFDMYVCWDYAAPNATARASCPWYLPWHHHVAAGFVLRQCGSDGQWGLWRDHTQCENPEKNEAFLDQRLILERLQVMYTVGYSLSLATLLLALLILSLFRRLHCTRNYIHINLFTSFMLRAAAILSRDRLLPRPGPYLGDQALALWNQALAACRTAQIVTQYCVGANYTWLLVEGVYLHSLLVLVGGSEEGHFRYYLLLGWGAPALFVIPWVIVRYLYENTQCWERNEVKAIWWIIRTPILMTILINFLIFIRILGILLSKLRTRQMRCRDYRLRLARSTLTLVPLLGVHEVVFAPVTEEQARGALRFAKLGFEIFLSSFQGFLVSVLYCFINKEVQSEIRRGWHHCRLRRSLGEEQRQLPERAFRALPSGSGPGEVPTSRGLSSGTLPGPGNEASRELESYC


Assays:
huGIPR ECD = target: T1, huGIPR ECD; assay: SPR (Biacore T200), mAb captured via goat anti-huFc, 200 nM huGIPR ECD analyte
Method: Immobilization of Goat-anti-huFc antibody to a S-CM5 sensor chip surface was performed according to manufacturer's instructions. The Biacore instrument running buffer is 0.005% P20/PBS 1×, pH7.4, no calcium chloride, no magnesium chloride. Briefly, carboxyl groups on the sensor chip surfaces were activated by injecting 60 μL of a mixture containing 0.2 M N-ethyl-N′-(dimethylaminopropyl) carbodiimide (EDC) and 0.05 M N-hydroxysuccinimide (NHS). Goat-anti-huFc antibody was diluted in 10 mM sodium acetate, pH 4.0 at 20 μg/ml and injected over the activated chip surface at 30 uL/min for 6 minutes. Excess reactive groups on the surfaces were deactivated by injecting 60 μL of 1 M ethanolamine. Final immobilized level was ˜8000 resonance units (RU).
Binding assays were carried out on the immobilized goat anti-huFc antibody surface by Biacore T200. The experiment was performed at 25° C. The instrument running buffer was 0.005% P20/PBS. The goat anti-huFc capture antibody was covalently attached to the sensor chip surface via standard amine coupling to flow cells channel 1-4. The anti-huGIPR antibodies were diluted in sample buffer (0.1 mg/ml BSA, 0.005% P20, PBS) to ˜10 nM then captured to flow cells channel 2, 3, 4. Flow cell channel 1 was as a blank reference surface without injection of anti-huGIPR antibody. The captured antibody response range was ˜250 RU. Then 200 nM huGIPR ECD was injected over the goat anti-huFc antibody captured anti-huGIPR antibody surfaces at flow rate 50 ul/min for 3 minutes. After a 10 minutes dissociation, each surface was regenerated by injecting 10 mM Glycine, pH 1.5 for 30 seconds twice.

human GIPR = target: T2, human GIPR; assay: cell-based or functional assay

Binder	koff (huGIPR ECD) [s⁻¹]	cAMP IC50 (human GIPR) [nM]
2G10.316 (antibody, human IgG1, kappa, N297G, V domains shown, also called SS-26193) VH: not shown VL: EIVMTQSPATLSVSPGERATLSCRASQSVFRHLAWYQQKPGQAPRLLIYEAATRATGIPARFSGSGSGTEFTLTISSLQSEDFAVYYCQQYQNWPLTFGGGTKVEIKR	< 5e-05	14.7
2G10.301 (antibody, human IgG1, kappa, N297G, V domains shown, also called SS-26178) VH: not shown VL: EIVMTQSPATLSVSPGERATLSCRASQSVFSHLAWYQQKPGQAPRLLIYEAATRATGIPARFSGSGSGTEFTLTISSLQSEDFAVYYCQQYQNWPLTFGGGTKVEIKR	7e-05	17.6
2G10.302 (antibody, human IgG1, kappa, N297G, V domains shown, also called SS-26179) VH: not shown VL: EIVMTQSPATLSVSPGERATLSCRASQSVFEHLAWYQQKPGQAPRLLIYEAATRATGIPARFSGSGSGTEFTLTISSLQSEDFAVYYCQQYNNWPLTFGGGTKVEIKR	< 5e-05	19.9
2G10.303 (antibody, human IgG1, kappa, N297G, V domains shown, also called SS-26180) VH: not shown VL: EIVMTQSPATLSVSPGERATLSCRASQSVDRHLAWYQQKPGQAPRLLIYEAATRATGIPARFSGSGSGTEFTLTISSLQSEDFAVYYCQQYQNWPLTFGGGTKVEIKR	7e-05	23.1
2G10.304 (antibody, human IgG1, kappa, N297G, V domains shown, also called SS-26181) VH: not shown VL: EIVMTQSPATLSVSPGERATLSCRASQSVNRHLAWYQQKPGQAPRLLIYEAATRATGIPARFSGSGSGTEFTLTISSLQSEDFAVYYCQQYQNWPLTFGGGTKVEIKR	< 5e-05	16.9
2G10.305 (antibody, human IgG1, kappa, N297G, V domains shown, also called SS-26182) VH: not shown VL: EIVMTQSPATLSVSPGERATLSCRASQSVDVNLAWYQQKPGQAPRLLIYNAATRATGIPARFSGSGSGTEFTLTISSLQSEDFAVYYCQQYQNWPLTFGGGTKVEIKR	< 5e-05	27.2
2G10.306 (antibody, human IgG1, kappa, N297G, V domains shown, also called SS-26183) VH: not shown VL: EIVMTQSPATLSVSPGERATLSCRASQSVLTHLAWYQQKPGQAPRLLIYEAATRATGIPARFSGSGSGTEFTLTISSLQSEDFAVYYCQQYQNWPLTFGGGTKVEIKR	< 5e-05	20.7
2G10.307 (antibody, human IgG1, kappa, N297G, V domains shown, also called SS-26184) VH: not shown VL: EIVMTQSPATLSVSPGERATLSCRASQSVDRHLAWYQQKPGQAPRLLIYEAATRATGIPARFSGSGSGTEFTLTISSLQSEDFAVYYCQQYNQWPLTFGGGTKVEIKR	6e-05	17.4
2G10.308 (antibody, human IgG1, kappa, N297G, V domains shown, also called SS-26185) VH: not shown VL: EIVMTQSPATLSVSPGERATLSCRASQSVFSHLAWYQQKPGQAPRLLIYEAATRATGIPARFSGSGSGTEFTLTISSLQSEDFAVYYCQQYQQWPLTFGGGTKVEIKR	< 5e-05	18.3
2G10.309 (antibody, human IgG1, kappa, N297G, V domains shown, also called SS-26186) VH: not shown VL: EIVMTQSPATLSVSPGERATLSCRASQSVERHLAWYQQKPGQAPRLLIYEAATRATGIPARFSGSGSGTEFTLTISSLQSEDFAVYYCQQYQNWPLTFGGGTKVEIKR	< 5e-05	29.5
2G10.311 (antibody, human IgG1, kappa, N297G, V domains shown, also called SS-26188) VH: not shown VL: EIVMTQSPATLSVSPGERATLSCRASQSVNVHLAWYQQKPGQAPRLLIYQAATRATGIPARFSGSGSGTEFTLTISSLQSEDFAVYYCQQYNQWPLTFGGGTKVEIKR	6e-05	14.9
2G10.312 (antibody, human IgG1, kappa, N297G, V domains shown, also called SS-26189) VH: not shown VL: EIVMTQSPATLSVSPGERATLSCRASQSVFEHLAWYQQKPGQAPRLLIYEAATRATGIPARFSGSGSGTEFTLTISSLQSEDFAVYYCQQYNNWPLTFGGGTKVEIKR	< 5e-05	23.2
2G10.313 (antibody, human IgG1, kappa, N297G, V domains shown, also called SS-26190) VH: not shown VL: EIVMTQSPATLSVSPGERATLSCRASQSVDRHLAWYQQKPGQAPRLLIYEAATRATGIPARFSGSGSGTEFTLTISSLQSEDFAVYYCQQYNQWPLTFGGGTKVEIKR	< 5e-05	20.7
2G10.314 (antibody, human IgG1, kappa, N297G, V domains shown, also called SS-26191) VH: not shown VL: EIVMTQSPATLSVSPGERATLSCRASQSVHSHLAWYQQKPGQAPRLLIYEAATRATGIPARFSGSGSGTEFTLTISSLQSEDFAVYYCQQYNNWPLTFGGGTKVEIKR	6e-05	17.5
2G10.315 (antibody, human IgG1, kappa, N297G, V domains shown, also called SS-26192) VH: not shown VL: EIVMTQSPATLSVSPGERATLSCRASQSVLTHLAWYQQKPGQAPRLLIYEAATRATGIPARFSGSGSGTEFTLTISSLQSEDFAVYYCQQYQNWPLTFGGGTKVEIKR	< 5e-05	22
2G10.317 (antibody, human IgG1, kappa, N297G, V domains shown, also called SS-26194) VH: not shown VL: EIVMTQSPATLSVSPGERATLSCRASQSVNRHLAWYQQKPGQAPRLLIYEAATRATGIPARFSGSGSGTEFTLTISSLQSEDFAVYYCQQYQQWPLTFGGGTKVEIKR	< 5e-05	13.7
2G10.318 (antibody, human IgG1, kappa, N297G, V domains shown) VH: not shown VL: EIVMTQSPATLSVSPGERATLSCRASQSVLSHLAWYQQKPGQAPRLLIYEAATRATGIPARFSGSGSGTEFTLTISSLQSEDFAVYYCQQYNNWPLTFGGGTKVEIKR	< 5e-05	20.9
2G10.319 (antibody, human IgG1, kappa, N297G, V domains shown) VH: not shown VL: EIVMTQSPATLSVSPGERATLSCRASQSVFRHLAWYQQKPGQAPRLLIYEAATRATGIPARFSGSGSGTEFTLTISSLQSEDFAVYYCQQYQNWPLTFGGGTKVEIKR	6e-05	7.9
2G10.321 (antibody, human IgG1, kappa, N297G, V domains shown) VH: not shown VL: EIVMTQSPATLSVSPGERATLSCRASQSVNRHLAWYQQKPGQAPRLLIYEAATRATGIPARFSGSGSGTEFTLTISSLQSEDFAVYYCQQYNQWPLTFGGGTKVEIKR	< 5e-05	7.46
2G10.322 (antibody, human IgG1, kappa, N297G, V domains shown) VH: not shown VL: EIVMTQSPATLSVSPGERATLSCRASQSVMSHLAWYQQKPGQAPRLLIYEAATRATGIPARFSGSGSGTEFTLTISSLQSEDFAVYYCQQYQNWPLTFGGGTKVEIKR	6e-05	17.9
2G10.323 (antibody, human IgG1, kappa, N297G, V domains shown) VH: not shown VL: EIVMTQSPATLSVSPGERATLSCRASQSVHRHLAWYQQKPGQAPRLLIYEAATRATGIPARFSGSGSGTEFTLTISSLQSEDFAVYYCQQYQNWPLTFGGGTKVEIKR	< 5e-05	17.4
2G10.324 (antibody, human IgG1, kappa, N297G, V domains shown) VH: not shown VL: EIVMTQSPATLSVSPGERATLSCRASQSVLSHLAWYQQKPGQAPRLLIYEAATRATGIPARFSGSGSGTEFTLTISSLQSEDFAVYYCQQYQNWPLTFGGGTKVEIKR	< 5e-05	14.1
2G10.325 (antibody, human IgG1, kappa, N297G, V domains shown) VH: not shown VL: EIVMTQSPATLSVSPGERATLSCRASQSVFEHLAWYQQKPGQAPRLLIYEAATRATGIPARFSGSGSGTEFTLTISSLQSEDFAVYYCQQYNQWPLTFGGGTKVEIKR	< 5e-05	26.2
2G10.326 (antibody, human IgG1, kappa, N297G, V domains shown) VH: not shown VL: EIVMTQSPATLSVSPGERATLSCRASQSVLSHLAWYQQKPGQAPRLLIYEAATRATGIPARFSGSGSGTEFTLTISSLQSEDFAVYYCQQYQQWPLTFGGGTKVEIKR	6e-05	26.6
